{
  "source": "paper PMC9320373",
  "about": "“Isolation and Characterization of Cell Envelope Fragments Comprising Archaeal S-Layer Proteins” (Nanomaterials, 2022)",
  "target": "the molecule itself",
  "experiment": "negative-stain transmission electron microscopy with 2D image reconstruction; SlaA-enriched sacculi (lipids and SlaB removed by SDS washes) sonicated to fragments, on glow discharged grid, 2% uranyl acetate; Fourier domain processing; p3 hexagonal lattice",
  "data": [
    {"protein": "S-layer large protein (SlaA) from Saccharolobus solfataricus P2 (natural protein, UniProt Q980C7 36-1231, looked up, glycosylated (sites not given), SlaA, S-layer large protein of Saccharolobus solfataricus P2; UniProt KB entry Q980C7; Mr 131 kDa as printed; Native protein isolated as an assembled S-layer lattice (sacculi and fragments), not as soluble monomers; also called surface layer large protein; SSO sacculi; source: endogenous, Saccharolobus solfataricus P2; sacculi extracted with sodium lauroylsarcosine and sonication (SEG), washed …) AAIYTIPSVTSVSNTSNIVINLFFNATSNSTVGAQASAFNYGLAINYTLDAITFTVVLPSGTSYPLIKLNAKNFANYGYYDLAHNSIVLLLNTTASSTAKELAYSYEQSIGVTPSASYKIYNYTNKTVNVNQYMNELPLSMLIYMATNGKYNNLASLPVGTKLEFTYAGVTYIIAVSPTVKLVGELLNPLYTANSKMLPGTNYAVGRSNITVAVYDNLITTTTSPFNFTLTYSSLAPALIYWFVIANTTYTNNGASTPTASFQAPPFKQYFPSNSTILYSAAPTKSSILMFNGQMNVTAHENVTLTLQTGTNIYTSPNFNVTPPGNYTFSGKLGVGFNGFIYQNGSATLTATIFNGTINFFFSSTGQKAAFTFFLVPIVPINLGDNNGATVIYNGVSLNTGFPQVVVMFNITGNFTKSGSNYLLYGSVYEAELKPLGSTQLQKLAGATDSTQFVGNLISSASSPLVSYFNYGESTTTITGTSLSFTVLMPLKFIVERLGYIYLVTFHIWGPSATVTVTGVDYHGTQIALGSFRAYVALPSFYTLPKTPLVGLTCDNMYTLAQVSDAGSVLETSTANSNANNATVIGPYDLMSNAGLHVAIYNGSKLVKSGNLGLLPNATTAPITTTITLNGQTVALTYSSAPTAIYPVDFKFEPGFSYSVTTNVIYNTSIPTYVVTVYMPLKYILQTKIVMWYVSPDYAAYFYYSSTGQYQTSNVTLTFANVTPELVMPQVFPVGKLYMPFGINDPYYVFYSSISIGPQSGVIEAVENGFNVGNITSITVELNGMNESIVLSPLNVSKLLISSNLGEVSQCSPLFTTTLFNISALASLLGLPNAAALNGSYLYVTYHDIISGAYVTNRTLLVVGQFYVMPPTTPGSVEWILTAKYINATTGIPVEISYAVVQQPSAKVVDINAANASITQIQVTGVKIVSKYATVTVMYNPSNASTIVYMNGMFVASYGGNLISSLSETSTFGVYYGAVVNLYVATGTLSSPNGTMYVVLGSHKVAVGTANLYTYAGYHFGPYTALPLVSNVTFTVQDPVTHATLTGQTTLGAFNNTPIRLAPLGVSIPQTAQYKVFYYYSTPLVLSPTSQYIVLSVTSVISYPYPFYIETVSFLGYNVTTGTPVPGTPAFQTVYSPSLGPGVVLQVPVQSYQFISLSTPSEPHTVVMFAVPFAGGPAISLYPTFLVYANVTAISS", "values": [
      {"measurement": "binding result", "result": "binds"}
    ]}
  ]
}
